Assay results as given in PMC11507893 (bioRxiv, 2024).
Changes are numbered by the printed parent chain.

Key:
[1] = target: T1, FLAG-tagged Mnl1 (Mnl1-FLAG) (S. cerevisiae, UniProt P38888 21-796); assay: cryo-EM structure
T1 sequence (looked up): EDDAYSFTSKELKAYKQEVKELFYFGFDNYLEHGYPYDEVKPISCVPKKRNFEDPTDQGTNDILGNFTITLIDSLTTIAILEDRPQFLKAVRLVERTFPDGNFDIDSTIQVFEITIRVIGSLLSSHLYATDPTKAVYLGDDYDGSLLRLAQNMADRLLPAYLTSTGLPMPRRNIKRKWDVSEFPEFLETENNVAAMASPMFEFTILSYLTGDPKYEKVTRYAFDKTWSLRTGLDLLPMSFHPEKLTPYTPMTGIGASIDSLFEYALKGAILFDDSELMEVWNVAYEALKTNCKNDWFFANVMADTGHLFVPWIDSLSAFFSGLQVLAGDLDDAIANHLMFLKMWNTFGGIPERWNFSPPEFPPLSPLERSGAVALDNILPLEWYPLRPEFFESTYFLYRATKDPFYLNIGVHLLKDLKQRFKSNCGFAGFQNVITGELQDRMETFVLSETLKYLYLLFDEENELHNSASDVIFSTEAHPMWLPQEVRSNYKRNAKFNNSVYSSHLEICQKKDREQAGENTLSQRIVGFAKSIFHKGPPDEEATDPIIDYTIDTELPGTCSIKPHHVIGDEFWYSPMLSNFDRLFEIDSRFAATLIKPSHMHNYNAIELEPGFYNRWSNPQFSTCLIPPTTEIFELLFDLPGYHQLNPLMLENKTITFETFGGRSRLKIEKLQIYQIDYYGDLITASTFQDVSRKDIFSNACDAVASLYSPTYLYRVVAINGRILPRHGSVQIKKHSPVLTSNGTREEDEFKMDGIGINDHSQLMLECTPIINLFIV

[2] = target: T2, Mnl1 mCTD mutant (L655N, F770Y, M772K), FLAG-tagged (S. cerevisiae, UniProt P38888 21-796, L655N | F770Y | M772K); assay: co-IP + SEC
T2 sequence (looked up): T1 sequence (looked up) with L635N, F750Y, M752K

[3] = target: T3, Mnl1(C579S), FLAG-tagged (S. cerevisiae, UniProt P38888 21-796, C579S); assay: cross-linking
T3 sequence (looked up): T1 sequence (looked up) with C559S

[4] = target: T4, Mnl1(C644S), FLAG-tagged (S. cerevisiae, UniProt P38888 21-796, C644S); assay: cross-linking
T4 sequence (looked up): T1 sequence (looked up) with C624S

Measured: binding result

B1: protein disulfide isomerase (Pdi1) (enzyme, S. cerevisiae, UniProt P17967 29-522, looked up)
chain: PEDSAVVKLATDSFNEYIQSHDLVLAEFFAPWCGHCKNMAPEYVKAAETLVEKNITLAQIDCTENQDLCMEHNIPGFPSLKIFKNSDVNNSIDYEGPRTAEAIVQFMIKQSQPAVAVVADLPAYLANETFVTPVIVQSGKIDADFNATFYSMANKHFNDYDFVSAENADDDFKLSIYLPSAMDEPVVYNGKKADIADADVFEKWLQVEALPYFGEIDGSVFAQYVESGLPLGYLFYNDEEELEEYKPLFTELAKKNRGLMNFVSIDARKFGRHAGNLNMKEQFPLFAIHDMTEDLKYGLPQLSEEAFDELSDKIVLESKAIESLVKDFLKGDASPIVKSQEIFENQDSSVFQLVGKNHDEIVNDPKKDVLVLYYAPWCGHCKRLAPTYQELADTYANATSDVLIAKLDHTENDVRGVVIEGYPTIVLYPGGKKSESVVYQGSRSLDSLFDFIKENGHFDVDGKALYEEAQEKAAEEADADAELADEEDAIHDEL
binds: all assays above
